Target: T1, SNAP-25206 uncleaved substrate in PC12 cells (rat (PC12 cell line), UniProt P60881 1-206, limits assumed)
T1 construct: also called uncleaved SNAP-25206 substrate; uncleaved SNAP-25
Experiment: immunocytochemistry of PC12 cells +/- GFP-BoNT/A-LC, ascites 1:10

T1 sequence (P60881 whole entry): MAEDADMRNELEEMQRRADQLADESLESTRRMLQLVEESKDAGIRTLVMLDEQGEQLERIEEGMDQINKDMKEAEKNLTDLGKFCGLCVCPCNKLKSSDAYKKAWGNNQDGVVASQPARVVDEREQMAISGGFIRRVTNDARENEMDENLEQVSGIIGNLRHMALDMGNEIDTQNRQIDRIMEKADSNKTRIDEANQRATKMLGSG

B1: α-SNAP-25 monoclonal antibody 3C1A5 (antibody, V domains shown)
VH: VKLQESGAELVKPGASVKISCKASGYTFTDHSIHWVKQKPGQGLEWIGYLFPGNGNFEYNEKFKGKATLTADKSSSTVYMYLNSLTSEDSAVYFCKRMGYWGQGTTVTVSS
VL: DIKMTQSPSSMYASLGERVTITCKASQDIKSYLSWYQQKPWKSPKTLIYYATSLADGVPSRFSGSGSGQDYSLTISSLESDDTATYYCLQHGESPFTFGSGTKLEIKR
  binding result: no binding

Source: patent publication US20120122128A1 (ALLERGAN, published 2012)
